The record followed here is paper PMC11260453.

Data set [1] deals with T1, OC2 DNA-binding domain (UniProt O95948 330-485).
T1 sequence: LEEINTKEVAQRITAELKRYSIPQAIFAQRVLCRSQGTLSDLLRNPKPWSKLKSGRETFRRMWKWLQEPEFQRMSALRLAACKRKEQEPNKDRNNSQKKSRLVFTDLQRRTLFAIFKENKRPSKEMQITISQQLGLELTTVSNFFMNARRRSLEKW
Put plainly: SPR.

In data set [2] the target is T1, OC2 DNA-binding domain. Put plainly: SPR. This is another data set of the same source.

B1: UGT2B15 promoter 20 bp WT (dsDNA)
DNA 1: TAACTTGATTGATTTTTCCT
DNA 2: AGGAAAAATCAATCAAGTTA
In the data set with OC2 DNA-binding domain [1], B1 had a Kd of 1.13 ± 0.01 nM.

B2: UGT2B15 promoter 20 bp mutant (dsDNA)
DNA 1: TAACTTGGCTGTCTTTTCCT
DNA 2: AGGAAAAGACAGCCAAGTTA
Regarding B2, the binding result in the data set with OC2 DNA-binding domain [2] was “no binding”.
